B1: Human recombinant tubulin β-3 (TUBB3) (natural protein)
chain: MREIVHIQAGQCGNQIGAKFWEVISDEHGIDPSGNYVGDSDLQLERISVYYNEASSHKYVPRAILVDLEPGTMDSVRSGAFGHLFRPDNFIFGQSGAGNNWAKGHYTEGAELVDSVLDVVRKECENCDCLQGFQLTHSLGGGTGSGMGTLLISKVREEYPDRIMNTFSVVPSPKVSDTVVEPYNATLSIHQLVENTDETYCIDNEALYDICFRTLKLATPTYGDLNHLVSATMSGVTTSLRFPGQLNADLRKLAVNMVPFPRLHFFMPGFAPLTARGSQQYRALTVPELTQQMFDAKNMMAACDPRHGRYLTVATVFRGRMSMKEVDEQMLAIQSKNSSYFVEWIPNNVKVAVCDIPPRGLKMSSTFIGNSTAIQELFKRISEQFTAMFRRKAFLHWYTGEGMDEMEFTEAESNMNDLVSEYQQYQDATAEEEGEMYEDDEEESEAQGPK
B2: Helix-A peptide of gp120 (peptide)
peptide: NDMVEQMHEDIISLWDQSLK

Columns and labels:
[1] = target: HIV-1 envelope glycoprotein gp120, strain IIIB (HIV-1 (strain IIIB), UniProt P04578 33-511); assay: SPR
[2] = target: B1; assay: SPR

Binder	Kd [1] [nM]	binding result [2]
B1	7.5	–
B2	–	binds
